# doi:10.1101/2020.05.08.084087 (bioRxiv, 2020)
# T1: ABCB1-YFP P1.008G (Arabidopsis, UniProt Q9ZR72 1-1286, P1.008G)
# T1 sequence: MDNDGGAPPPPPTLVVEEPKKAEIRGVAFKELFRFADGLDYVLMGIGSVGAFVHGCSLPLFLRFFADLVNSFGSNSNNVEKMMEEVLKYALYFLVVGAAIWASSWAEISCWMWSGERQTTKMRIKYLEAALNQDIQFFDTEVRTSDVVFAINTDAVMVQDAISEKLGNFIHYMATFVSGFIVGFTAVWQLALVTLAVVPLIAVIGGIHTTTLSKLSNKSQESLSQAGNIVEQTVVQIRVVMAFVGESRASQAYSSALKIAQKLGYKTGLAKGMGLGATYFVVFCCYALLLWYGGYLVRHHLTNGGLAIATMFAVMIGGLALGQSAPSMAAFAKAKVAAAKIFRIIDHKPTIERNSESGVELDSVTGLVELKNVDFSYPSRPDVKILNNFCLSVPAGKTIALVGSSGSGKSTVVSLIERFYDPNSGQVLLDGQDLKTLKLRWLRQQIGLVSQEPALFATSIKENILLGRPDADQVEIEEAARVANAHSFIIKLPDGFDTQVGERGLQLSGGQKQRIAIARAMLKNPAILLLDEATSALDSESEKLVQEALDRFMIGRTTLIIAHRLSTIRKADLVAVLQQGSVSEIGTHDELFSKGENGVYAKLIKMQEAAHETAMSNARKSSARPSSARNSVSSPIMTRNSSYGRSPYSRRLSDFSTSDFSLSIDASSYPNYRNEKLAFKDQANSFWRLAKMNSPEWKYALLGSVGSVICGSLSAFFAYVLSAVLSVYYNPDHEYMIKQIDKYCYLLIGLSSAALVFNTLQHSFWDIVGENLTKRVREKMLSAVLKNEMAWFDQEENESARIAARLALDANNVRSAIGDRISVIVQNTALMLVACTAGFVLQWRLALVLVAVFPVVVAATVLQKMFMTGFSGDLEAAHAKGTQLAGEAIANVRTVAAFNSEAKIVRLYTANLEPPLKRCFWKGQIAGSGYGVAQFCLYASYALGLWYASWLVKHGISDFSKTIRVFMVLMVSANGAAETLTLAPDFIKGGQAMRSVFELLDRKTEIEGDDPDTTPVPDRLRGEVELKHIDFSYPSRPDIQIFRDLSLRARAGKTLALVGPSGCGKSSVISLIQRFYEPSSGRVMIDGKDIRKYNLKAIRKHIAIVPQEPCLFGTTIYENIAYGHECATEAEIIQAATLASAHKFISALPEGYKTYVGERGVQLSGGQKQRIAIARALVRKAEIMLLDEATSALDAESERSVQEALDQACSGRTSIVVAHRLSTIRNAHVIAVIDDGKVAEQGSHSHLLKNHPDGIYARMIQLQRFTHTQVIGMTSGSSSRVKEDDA
# T2: ABCB1-YFP E1.007A (Arabidopsis, UniProt Q9ZR72 1-1286, E1.007A)
# T2 sequence: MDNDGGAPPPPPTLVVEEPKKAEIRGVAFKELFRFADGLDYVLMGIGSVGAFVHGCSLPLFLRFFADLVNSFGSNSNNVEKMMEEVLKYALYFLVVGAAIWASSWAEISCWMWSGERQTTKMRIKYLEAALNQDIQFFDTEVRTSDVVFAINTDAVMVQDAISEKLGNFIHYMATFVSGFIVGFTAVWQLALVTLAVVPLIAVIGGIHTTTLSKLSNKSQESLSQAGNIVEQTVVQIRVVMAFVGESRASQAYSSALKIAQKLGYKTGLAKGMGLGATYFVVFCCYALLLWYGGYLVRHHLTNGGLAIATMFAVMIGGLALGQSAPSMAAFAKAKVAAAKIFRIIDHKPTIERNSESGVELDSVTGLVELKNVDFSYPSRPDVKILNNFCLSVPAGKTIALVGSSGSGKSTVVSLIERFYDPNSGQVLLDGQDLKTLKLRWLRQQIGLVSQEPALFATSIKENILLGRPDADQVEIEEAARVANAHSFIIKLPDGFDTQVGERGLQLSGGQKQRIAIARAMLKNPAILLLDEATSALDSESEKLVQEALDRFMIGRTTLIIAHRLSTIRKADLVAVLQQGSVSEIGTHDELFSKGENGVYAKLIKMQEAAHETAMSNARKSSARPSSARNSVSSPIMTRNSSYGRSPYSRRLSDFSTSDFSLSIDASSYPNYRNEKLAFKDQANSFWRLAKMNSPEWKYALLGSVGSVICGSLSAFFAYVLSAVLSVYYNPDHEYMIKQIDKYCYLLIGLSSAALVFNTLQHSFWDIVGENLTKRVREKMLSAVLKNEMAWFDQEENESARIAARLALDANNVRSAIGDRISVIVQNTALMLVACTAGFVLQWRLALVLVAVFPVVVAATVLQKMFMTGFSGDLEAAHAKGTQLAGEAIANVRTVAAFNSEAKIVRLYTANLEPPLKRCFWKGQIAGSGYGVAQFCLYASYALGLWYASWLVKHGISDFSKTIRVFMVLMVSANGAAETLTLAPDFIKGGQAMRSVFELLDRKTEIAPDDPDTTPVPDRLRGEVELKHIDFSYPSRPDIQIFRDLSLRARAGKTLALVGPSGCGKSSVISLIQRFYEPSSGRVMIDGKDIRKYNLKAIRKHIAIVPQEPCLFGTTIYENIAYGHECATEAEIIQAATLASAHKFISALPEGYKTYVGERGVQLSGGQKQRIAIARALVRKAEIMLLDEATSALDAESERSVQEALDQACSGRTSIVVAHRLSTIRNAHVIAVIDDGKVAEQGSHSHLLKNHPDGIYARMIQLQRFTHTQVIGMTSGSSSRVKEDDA
# Tests used:
# ABCB1-YFP P1.008G = target: T1, ABCB1-YFP P1.008G; assay: FRET or BRET
# ABCB1-YFP E1.007A = target: T2, ABCB1-YFP E1.007A; assay: FRET or BRET
binder,measurement,setting,value
TWD1-Rluc (natural protein) MDESLEHQTQTHDQESEIVTEGSAVVHSEPSQEGNVPPKVDSEAEVLDEKVSKQIIKEGHGSKPSKYSTCFLHYRAWTKNSQHKFEDTWHEQQPIELVLGKEKKELAGLAIGVASMKSGERALVHVGWELAYGKEGNFSFPNVPPMADLLYEVEVIGFDETKEGKARSDMTVEERIGAADRRKMDGNSLFKEEKLEEAMQQYEMAIAYMGDDFMFQLYGKYQDMALAVKNPCHLNIAACLIKLKRYDEAIGHCNIVLTEEEKNPKALFRRGKAKAELGQMDSARDDFRKAQKYAPDDKAIRRELRALAEQEKALYQKQKEMYKGIFKGKDEGGAKSKSLFWLIVLWQWFVSLFSRIFRRHRVKAD,reduction of the BRET ratio against Wt ABCB1-YFP,ABCB1-YFP P1.008G,~17%
same,reduction of the BRET ratio against Wt ABCB1-YFP,ABCB1-YFP E1.007A,~39%
